B1: library; numbered along this chain (parent)
chain: MRKPRAAVGSGHRKQAASQEGRQKHAKNNSQAKPSACDGLARQPEEVVLQASVSSYHLFRDVAEVTAFRGSLLSWYDQEKRDLPWRRRAEDEMDLDRRAYAVWVSEVMLQQTQVATVINYYTGWMQKWPTLQDLASASLEEVNQLWAGLGYYSRGRRLQEGARKVVEELGGHMPRTAETLQQLLPGVGRYTAGAIASIAFGQATGVVDGNVARVLCRVRAIGADPSSTLVSQQLWGLAQQLVDPARPGDFNQAAMELGATVCTPQRPLCSQCPVESLCRARQRVEQEQLLASGSLSGSPDVEECAPNTGQCHLCLPPSEPWDQTLGVVNFPRKASRKPPREESSATCVLEQPGALGAQILLVQRPNSGLLAGLWEFPSVTWEPSEQLQRKALLQELQRWAGPLPATHLRHLGEVVHTFSHIKLTYQVYGLALEGQTPVTTVPPGARWLTQEEFHTAAVSTAMKKVFRVYQGQQPGTCMGSKRSQVSSPCSRKKPRMGQQVLDNFFRSHISTDAHSLNSAAQ

Variants of: B1
Experiment: 8OG:A repair function score (normalized; synonymous = 0, nonsense = -1) (normalized log-likelihood score); higher = more repair activity (WT-like)
Settings: with 8OG:A DNA repair reporter (GFP) in HEK-293 MUTYH KO cells
Method in brief: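 With 10 pg/ml doxycycline, MUTYH knockout HEK-293 cells carrying lentiviral MUTYH cDNA NNN codon-scan libraries were co-transfected with mCherry and an 8OG:A GFP repair reporter. Viable mCherry+ cells were sorted into GFP+ (repair) and GFP− bins at 72 h, three replicates per tile, and tile amplicons were sequenced. Per-tile Rosace fitness scores were then normalized into a repair function score anchored on synonymous and nonsense distributions. Medians were fixed at 0 for synonymous and -1 for nonsense, excluding variants under 300 counts per million at the start.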

8OG:A repair function score: each site, then its substitutions
G434: C 0.163, K 0.22, W 0.0509, Y 0.0378, V -0.0502, E 0.0175, A 0.188, D -0.275, I -0.0439, Q -0.0366, R -0.0648, M 0.0898, P -0.0275, H -0.0472, N -0.392, S -0.0544, T -0.0414, F 0.125, L -0.158
Q435: R 0.0382, S 0.261, G -0.0569, F -0.052, C 0.293, I 0.00734, L 0.0233, E -0.132, M 0.051, A -0.0344, H 0.148, P 0.288, T 0.028, Y 0.0772, N -0.138, K 0.0819, W -0.125, D 0.0234, V -0.157
V438: T -0.0976, W -0.131, P 0.0371, Q 0.187, G -0.176, Y -0.0793, M -0.252, D 0.0779, A 0.149, L -0.0153, R 0.11, S -0.176, N 0.103, E 0.281, F -0.193, C 0.134, I -0.407, K -0.0297, H -0.17
E433: L -0.0355, R 0.0685, T -0.00904, V -0.164, K -0.0112, H -0.0353, Y -0.0863, C -0.179, F -0.199, Q 0.165, I 0.00922, M -0.0329, W -0.393, S 0.0139, A 0.0651, G 0.00508, D -0.241, P 0.219, N -0.0644
L432: D -0.57, H -0.223, V -0.118, E -0.542, N -0.504, F -0.116, S -0.284, G -0.302, M -0.284, Q -0.604, P -0.514, A -0.541, K -0.608, C 0.0294, Y -0.499, T -0.151, I -0.208, R -0.334, W 0.0604
T436: C -0.201, E -0.16, I -0.0834, H 0.323, Q 0.0306, S -0.173, Y 0.0674, L 0.548, R -0.124, N -0.0228, V -0.079, A 0.195, P -0.0919, G -0.0926, W -0.00145, F -0.0267, D 0.113, K -0.201, M 0.186
A431: G -0.211, K 0.126, C -0.0248, Q -0.242, W -0.13, T -0.0229, F -0.237, H 0.358, Y -0.0701, D -0.204, R -0.0201, M -0.23, N 0.00246, L 0.0682, I 0.0332, V -0.0559, E 0.346, P -0.0943, S 0.129
P437: D -0.128, L -0.197, M -0.528, E 0.0852, Q -0.0348, K -0.15, Y -0.351, R -0.174, V -0.0519, I -0.277, T -0.142, F -0.282, W 0.078, C -0.244, G 0.136, A -0.00344, S -0.0348, N -0.284, H 0.0786
L430: P -0.888, Q -0.561, V -0.165, I -0.29, H -0.604, M -0.448, S -0.127, R -0.655, W 0.0653, Y -0.0889, K -0.617, F 0.0205, N -0.276, T -0.477, G -0.304

From the supplement of paper PMC11908140
